{
  "source": "patent US20210087522A1",
  "about": "(UNIVERSITY OF FLORIDA RESEARCH FOUNDATION, published 2021)",
  "key": {"[1]": {"target": "T1, APPT, Sfp-like phosphopantetheinyl transferase (PPTase) from Anabaena sp. PCC7120 (Anabaena sp. PCC7120, UniProt P37695 1-237)", "T1 construct": "also called Anabaena PPTase", "T1 sequence": "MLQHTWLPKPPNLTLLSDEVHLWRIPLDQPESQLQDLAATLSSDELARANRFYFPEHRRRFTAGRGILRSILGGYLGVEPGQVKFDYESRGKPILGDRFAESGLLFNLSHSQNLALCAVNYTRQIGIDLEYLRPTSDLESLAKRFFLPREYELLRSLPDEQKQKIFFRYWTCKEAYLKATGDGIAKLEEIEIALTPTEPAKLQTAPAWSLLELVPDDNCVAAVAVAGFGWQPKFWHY", "assay": "read from Km, Michaelis-Menten kinetics of phosphopantetheinylation (HPLC)"}, "[2]": {"target": "T2, SPPT, Sfp-like phosphopantetheinyl transferase (PPTase) from Synechocystis sp. PCC6803 (Synechocystis sp. PCC6803, UniProt Q55185 1-246)", "T2 construct": "Recombinant protein with a His-tag from pET28b, made in E. coli", "T2 sequence": "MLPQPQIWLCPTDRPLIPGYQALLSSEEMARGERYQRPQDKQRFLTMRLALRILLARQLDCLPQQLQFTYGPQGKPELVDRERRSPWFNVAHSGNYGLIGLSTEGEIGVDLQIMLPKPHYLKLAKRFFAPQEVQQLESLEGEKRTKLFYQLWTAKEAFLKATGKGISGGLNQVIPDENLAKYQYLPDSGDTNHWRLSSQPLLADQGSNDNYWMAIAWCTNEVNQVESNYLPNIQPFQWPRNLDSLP", "assay": "read from Km, Michaelis-Menten kinetics of phosphopantetheinylation (HPLC)"}},
  "data": [
    {"binder": "SFACP, ACP of the FAS from Synechocystis (other) MDQEIFEKVKKIVVEQLEVDPDKVTPDATFAEDLGADSLDTVELVMALEEEFDIEIPDEVAETIDTVGKAVEHIESK", "values": [
      {"measurement": "binding result", "setting": "[1]", "result": "binds"},
      {"measurement": "binding result", "setting": "[2]", "result": "binds"}
    ]}
  ]
}
